Biological target: the molecule itself
Experiment: SDS-PAGE and western blotting

B1: LASV Zinc protein (Z), lineage IV (natural protein)
chain: MGNKQAKAPESKDSPRASLIPDATHLGPQFCKSCWFENKGLVECNNHYLCLNCLTLLLSVSNRCPICKMPLPTKLRPSAAPTAPPTGAADSIRPPPYSP
notes: also called Z protein; lineage IV Z
Q: Does B1 bind?
A: binds

From publication PMC7525497, “Antibodies from Sierra Leonean and Nigerian Lassa fever survivors cross-react with recombinant proteins representing Lassa viruses of divergent lineages” (Scientific Reports, 2020)
